Measured values as given in patent US20220242950A1 (CANTARGIA, published 2022).

T1: human IL1RAP on the cell surface (human, UniProt Q9NPH3 21-570)
T1 sequence (looked up): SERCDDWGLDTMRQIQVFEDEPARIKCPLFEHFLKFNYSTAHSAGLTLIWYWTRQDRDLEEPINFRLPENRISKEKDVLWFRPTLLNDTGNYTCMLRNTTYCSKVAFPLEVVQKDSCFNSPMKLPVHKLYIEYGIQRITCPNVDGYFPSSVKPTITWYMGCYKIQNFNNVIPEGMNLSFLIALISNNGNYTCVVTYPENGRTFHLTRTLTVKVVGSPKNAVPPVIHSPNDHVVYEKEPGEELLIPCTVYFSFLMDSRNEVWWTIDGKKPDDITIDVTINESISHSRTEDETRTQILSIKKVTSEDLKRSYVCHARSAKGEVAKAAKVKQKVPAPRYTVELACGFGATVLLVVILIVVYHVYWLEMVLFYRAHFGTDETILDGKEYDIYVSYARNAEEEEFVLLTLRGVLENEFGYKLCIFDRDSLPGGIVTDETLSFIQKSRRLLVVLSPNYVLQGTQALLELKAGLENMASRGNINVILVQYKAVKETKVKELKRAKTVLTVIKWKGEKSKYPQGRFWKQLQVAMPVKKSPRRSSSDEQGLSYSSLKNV

T2: recombinant mf IL1RAP aa21-367 (cynomolgus monkey (Macaca fascicularis), UniProt A0A2K5X5J5 21-367)
T2 construct: also called cynomolgus monkey IL1RAP; cyno IL1RAP
T2 sequence: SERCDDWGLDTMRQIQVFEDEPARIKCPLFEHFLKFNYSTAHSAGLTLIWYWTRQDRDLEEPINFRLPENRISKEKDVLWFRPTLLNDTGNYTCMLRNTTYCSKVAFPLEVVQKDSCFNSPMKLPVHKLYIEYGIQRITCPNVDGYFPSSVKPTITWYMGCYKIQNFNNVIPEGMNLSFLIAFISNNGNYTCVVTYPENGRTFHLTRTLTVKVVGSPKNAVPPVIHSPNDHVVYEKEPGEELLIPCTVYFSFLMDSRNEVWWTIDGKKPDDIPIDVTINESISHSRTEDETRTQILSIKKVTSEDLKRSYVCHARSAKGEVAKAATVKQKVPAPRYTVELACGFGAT

T3: recombinant hIL1RAP Domain1+2+3 (aa21-367) (human, UniProt Q9NPH3 21-367)
T3 construct: Numbering on Uniprot Q9NPH3
T3 sequence (looked up): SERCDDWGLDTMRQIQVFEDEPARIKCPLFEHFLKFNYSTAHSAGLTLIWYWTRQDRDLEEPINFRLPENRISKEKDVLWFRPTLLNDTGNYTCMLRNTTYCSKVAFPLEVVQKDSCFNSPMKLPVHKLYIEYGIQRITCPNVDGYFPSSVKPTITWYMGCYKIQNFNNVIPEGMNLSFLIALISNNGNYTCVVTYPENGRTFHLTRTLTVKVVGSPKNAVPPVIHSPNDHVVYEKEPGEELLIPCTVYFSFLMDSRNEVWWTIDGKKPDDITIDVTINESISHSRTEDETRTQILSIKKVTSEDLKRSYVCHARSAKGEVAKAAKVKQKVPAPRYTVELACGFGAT


Tests used:
[1] = target: T1, human IL1RAP on the cell surface; test: cell-based or functional assay
[2] = target: T2, recombinant mf IL1RAP aa21-367; test: binding ELISA, coated recombinant mf IL1RAP aa21-367
[3] = target: T3, recombinant hIL1RAP Domain1+2+3 …; test: bio-layer interferometry, human IL1RAP
Procedure: Affinity measurements were done on BLItz™ Label-Free Protein Analysis System from ForteBio, using the Basic Kinetics module in the BLItz Pro 1.3.1.3 software from Molecular Devices. Protein A biosensors were hydrated in blocking buffer (PBS, 0.5% BSA, 0.05% Tween 20, pH 7.4) for minimum 10 min at room temperature before coating. Protein A biosensors were coated with antibodies by dipping the biosensors in 200 μl of antibody solution (10 μg/ml in blocking buffer) for 30 min at room temperature. The sensors were then incubated in 200 μl blocking buffer for at least 10 min before use. […] The baseline was made in blocking buffer with a duration time of 30 sec. Association was made for 120 sec in hIL1RAP followed by 120 sec dissociation in blocking buffer.
The antibodies were characterized for A) binding (ELISA analysis, human and cynomolgus monkey IL1RAP), B) inhibition of cytokine signaling (HEK-Blue™ assay), C) affinity (Bio-layer interferometry), D) size heterogeneity (SE-HPLC) and E) yield (concentration, A280). […] SE-HPLC was performed using standard procedures and PBS as running buffer. Affinity and cytokine inhibition were measured as previously described in Example 10. All 25 humanized clones were analyzed for blocking activity on IL-1α, IL-1β and IL-33 signaling while only the clones that had retained the inhibitory activity similar to chimeric 48D2 were analyzed for IL-36 inhibition.
KD values for affinity towards human IL1RAP are shown in Table 11 for the humanized 48D2 variants. Affinity was measured using bio-layer interferometry. […] See also Table 4 for a direct comparison of chimeric 48D2, humanized 48D2 variant VH5:VL4, and a humanized and de-immunized 48D2 variant VH5.GL:VL4.

[4] = target: T3, recombinant hIL1RAP Domain1+2+3 …; test: binding ELISA, coated recombinant hIL1RAP aa21-367

Row | IC50 of IL-1α signaling (HEK-Blue assay) [1] [nM] | IC50 of IL-33 signaling (HEK-Blue assay) [1] [nM] | IC50 of IL-36α signaling (HEK-Blue assay) [1] [nM] | IC50 of IL-36γ signaling (HEK-Blue assay) [1] [nM] | IC50 [2] [µg/mL] | Kd [3] [nM] | IC50 [4] [µg/mL] | IC50 of IL-1β signaling (HEK-Blue assay) [1] [nM] | IC50 of IL-36β signaling (HEK-Blue assay) [1] [nM] | Binder
1 | 2.14 | 3.14 | 0.286 | 3.1 | 0.0261 | 2.75 | 0.0248 | – | – | h48D2 VH5:VL1 (antibody, human IgG1, kappa, L234A L235A, V domains shown, Humanized; also called VL1:VH5) VH: QEQLEESGGGLVKPGGTLSLTCTVSGPSLSHFDITWIRQAPGSGLEWIGTISPGVSTYYASWAKSRVTISVDTSLNTVSLKLSSVTAADTATYFCARGGVGSSWKAFDLWGPGTLVTISS VL: DIVMTQSPSSLSASVGDRVTITCQASESISTALAWYQQKPGKAPKLLIYKASTLPSGVPSRFSGSGSGTDFTLTISSLQPEDFATYYCQQGFSSGNVHNAFGGGTKVVIKR
2 | 227 | 254 | – | – | 0.0226 | 30.3 | 0.0181 | 51.6 | – | h48D2 VH1:VL1 (antibody, human IgG1, kappa, L234A L235A, V domains shown, Humanized; also called VL1:VH1) VH: EVQLEESGGGLVKPGGSLRLSCAASGPSLSHFDITWVRQAPGKGLEWVSTISPGVSTYYASWAKSRFTISRDNSKNTLYLQMNSLRAEDTAVYYCARGGVGSSWKAFDLWGRGTLVTVSS VL: DIVMTQSPSSLSASVGDRVTITCQASESISTALAWYQQKPGKAPKLLIYKASTLPSGVPSRFSGSGSGTDFTLTISSLQPEDFATYYCQQGFSSGNVHNAFGGGTKVVIKR
3 | – | ~87500 | – | – | 0.0294 | 28 | 0.0257 | 9.54 | – | h48D2 VH3:VL1 (antibody, human IgG1, kappa, L234A L235A, V domains shown, Humanized; also called VL1:VH3) VH: EVQLLESGGGLVLPGGSLRLSCAASGPSLSHFDITWVRQAPGKGLEWVSTISPGVSTYYASWAKSRFTISRDNSKNTLYLQMSSLRAEDTAVYYCARGGVGSSWKAFDLWGLGTTVTVSS VL: DIVMTQSPSSLSASVGDRVTITCQASESISTALAWYQQKPGKAPKLLIYKASTLPSGVPSRFSGSGSGTDFTLTISSLQPEDFATYYCQQGFSSGNVHNAFGGGTKVVIKR
4 | 242 | – | – | – | 0.0198 | 33.7 | 0.0182 | 37.6 | – | h48D2 VH1:VL2 (antibody, human IgG1, kappa, L234A L235A, V domains shown, Humanized; also called VL2:VH1) VH: EVQLEESGGGLVKPGGSLRLSCAASGPSLSHFDITWVRQAPGKGLEWVSTISPGVSTYYASWAKSRFTISRDNSKNTLYLQMNSLRAEDTAVYYCARGGVGSSWKAFDLWGRGTLVTVSS VL: QIVLTQSPATLSASVGDRVTITCQASESISTALAWYQQKPGKAPKLLIYKASTLPSGVPSRFSGSGSGTEFTLTISSLQPDDSATYYCQQGFSSGNVHNAFGQGTKLEIKR
5 | 347 | – | – | – | 0.02 | 42.9 | 0.019 | 14.6 | – | h48D2 VH1:VL4 (antibody, human IgG1, kappa, L234A L235A, V domains shown, Humanized; also called VL4:VH1) VH: EVQLEESGGGLVKPGGSLRLSCAASGPSLSHFDITWVRQAPGKGLEWVSTISPGVSTYYASWAKSRFTISRDNSKNTLYLQMNSLRAEDTAVYYCARGGVGSSWKAFDLWGRGTLVTVSS VL: ELVMTQSPSSVSASVGDRVTITCQASESISTALAWYQQKPGKAPKLLIYKASTLPSGVPSRFSGSGSGTDFTLTINSLQPEDFATYYCQQGFSSGNVHNAFGGGTKVEIKR
6 | ~43800 | – | – | – | 0.0279 | 13.2 | 0.0238 | 2.75 | – | h48D2 VH2:VL1 (antibody, human IgG1, kappa, L234A L235A, V domains shown, Humanized; also called VL1:VH2) VH: EVQLVESGGALVQPGGSLRLSCIVSGPSLSHFDITWFRQAPGKGLEWVATISPGVSTYYASWAKSRFTISTDTSKNTLFLQMDSLRAEDTAVYYCARGGVGSSWKAFDLWGPGTLVTVSS VL: DIVMTQSPSSLSASVGDRVTITCQASESISTALAWYQQKPGKAPKLLIYKASTLPSGVPSRFSGSGSGTDFTLTISSLQPEDFATYYCQQGFSSGNVHNAFGGGTKVVIKR
7 | 4.45 | 2.72 | 0.0779 | 0.167 | 0.0288 | 2.33 | 0.0249 | – | 17.4 | h48D2 VH5:VL3 (antibody, human IgG1, kappa, L234A L235A, V domains shown, Humanized; also called VL3:VH5) VH: QEQLEESGGGLVKPGGTLSLTCTVSGPSLSHFDITWIRQAPGSGLEWIGTISPGVSTYYASWAKSRVTISVDTSLNTVSLKLSSVTAADTATYFCARGGVGSSWKAFDLWGPGTLVTISS VL: DILLTQTPSVVSASVGDRVTITCQASESISTALAWYQQKPGQAPRLLIYKASTLPSGVPSRFRGSGSGTDFTLTITSLQPEDFATYYCQQGFSSGNVHNAFGGGTRLEIKR
8 | 231 | 195 | – | – | 0.018 | 35 | 0.0201 | 17.2 | – | h48D2 VH1:VL3 (antibody, human IgG1, kappa, L234A L235A, V domains shown, Humanized; also called VL3:VH1) VH: EVQLEESGGGLVKPGGSLRLSCAASGPSLSHFDITWVRQAPGKGLEWVSTISPGVSTYYASWAKSRFTISRDNSKNTLYLQMNSLRAEDTAVYYCARGGVGSSWKAFDLWGRGTLVTVSS VL: DILLTQTPSVVSASVGDRVTITCQASESISTALAWYQQKPGQAPRLLIYKASTLPSGVPSRFRGSGSGTDFTLTITSLQPEDFATYYCQQGFSSGNVHNAFGGGTRLEIKR
9 | 3.77 | 0.647 | – | 0.253 | 0.0218 | 4.27 | 0.0231 | – | – | h48D2 VH5:VL2 (antibody, human IgG1, kappa, L234A L235A, V domains shown, Humanized; also called VL2:VH5) VH: QEQLEESGGGLVKPGGTLSLTCTVSGPSLSHFDITWIRQAPGSGLEWIGTISPGVSTYYASWAKSRVTISVDTSLNTVSLKLSSVTAADTATYFCARGGVGSSWKAFDLWGPGTLVTISS VL: QIVLTQSPATLSASVGDRVTITCQASESISTALAWYQQKPGKAPKLLIYKASTLPSGVPSRFSGSGSGTEFTLTISSLQPDDSATYYCQQGFSSGNVHNAFGQGTKLEIKR
10 | 6.3 | 1.23 | – | 0.192 | 0.0313 | 1.68 | 0.0276 | – | 11.1 | h48D2 VH5:VL5 (antibody, human IgG1, kappa, L234A L235A, Humanized; also called VL5:VH5) heavy: not shown light: APVLTQSPATLEASVGDRVTITCQASESISTALAWYQQKPGQPPKLLIYKASTLPSGVPSRFSGSGSGTEFTLTISDLESDDAATYYCQQGFSSGNVHNAFGGGTEVVVKRTVAAPSVFIFPPSDEQLKSGTASVVCLLNNFYPREAKVQWKVDNALQSGNSQESVTEQDSKDSTYSLSSTLTLSKADYEKHKVYACEVTHQGLSSPVTKSFNRGEC
